Test results reported in US20160122421A1.

Experiments:
[1] = biological target: humanized variant of IPN002 (hu-IPN002); assay: competition ELISA; competitor: biotin-Tau 15-44 on hu-IPN002
[2] = biological target: 383 amino acid recombinant tau (UniProt P10636); assay: peptide binding ELISA (A450), hu-IPN002 titrated; table under the curves
[3] = biological target: 383 amino acid recombinant tau (UniProt P10636); assay: ELISA, solid phase, biotin-rTau383
biotin-phospho Tau 15-24 = assay: ELISA, serially diluted hu-IPN002 with biotin-Tau 15-24 PHOSPHO
[4] = biological target: 383 amino acid recombinant tau (UniProt P10636); assay: solid phase ELISA, biotin-rTau383, A450
[5] = biological target: 383 amino acid recombinant tau (UniProt P10636); assay: ELISA, solution phase, biotin-rTau383
[6] = biological target: 383 amino acid recombinant tau (UniProt P10636); assay: solution phase ELISA, biotin-rTau383, A450
[7] = biological target: 383 amino acid recombinant tau (UniProt P10636); assay: ELISA binding assay, A450
biotin-Tau 15-24 = assay: ELISA, serially diluted hu-IPN002 with biotin-Tau 15-24
[8] = biological target: 383 amino acid recombinant tau (UniProt P10636); assay: ELISA, serially diluted hu-IPN002 with biotin-rTau383
[9] = biological target: 383 amino acid recombinant tau (UniProt P10636); assay: peptide binding ELISA (A450), hu-IPN002 titrated

383 amino acid recombinant tau, sequence (P10636 other isoform, or with tags, fused parts or gaps limits assumed): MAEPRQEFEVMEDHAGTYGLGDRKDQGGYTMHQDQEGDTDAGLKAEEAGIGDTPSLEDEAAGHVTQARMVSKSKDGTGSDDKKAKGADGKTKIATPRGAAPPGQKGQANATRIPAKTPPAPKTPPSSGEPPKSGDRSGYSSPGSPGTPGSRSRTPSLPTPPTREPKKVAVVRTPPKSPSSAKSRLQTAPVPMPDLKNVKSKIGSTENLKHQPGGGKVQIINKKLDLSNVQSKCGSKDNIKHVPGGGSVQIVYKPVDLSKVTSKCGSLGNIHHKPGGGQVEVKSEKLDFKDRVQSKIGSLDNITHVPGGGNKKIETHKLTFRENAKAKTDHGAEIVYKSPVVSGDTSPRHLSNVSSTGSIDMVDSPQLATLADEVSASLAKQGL
Peptide 2 (Tau amino acids 15-44), sequence (peptide): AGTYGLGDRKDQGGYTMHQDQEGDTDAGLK

IC50 (read off the curve) [1] [nM]	Kd [2] [nM]	Kd [3] [nM]	Kd (biotin-phospho Tau 15-24) [nM]	EC50 (read off the curve) [4] [nM]	Kd [5] [nM]	EC50 (read off the curve) [6] [nM]	EC50 (read off the curve) [7] [nM]	Kd [7] [nM]	Kd (biotin-Tau 15-24) [nM]	Kd [8] [nM]	EC50 (read off the curve) [9] [nM]	Substance
100												Peptide 2 (Tau amino acids 15-44)
	0.288	0.107	0.768	0.1	0.114	0.1	0.3	0.288	0.754	0.283	0.3	humanized variant of IPN002 (hu-IPN002) (antibody)
